Assay [1] concerns the target recombinant N1 (neuraminidase subtype 1 head domain of A/Brisbane/02/2018 (H1N1) fused to the tetrabrachion tetramerization domain) (not stated | influenza A virus A/Brisbane/02/2018 (H1N1)) (UniProt Q54436). Kind of assay: SEC-MALS; AdvanceBio SEC 300-Å column connected to a DAWN8 detector, 0.3 ml/min, PBS pH 7.2.
Assay [2] has the same target. Kind of assay: SEC. On the technique in general: SEC sorts molecules by how far they enter the pores of the column.
In assay [3] the target is recombinant N2 (neuraminidase subtype 2 head domain of A/Kansas/14/2017 (H3N2) fused to the tetrabrachion tetramerization domain) (not stated | influenza A virus A/Kansas/14/2017 (H3N2)) (UniProt Q54436). Kind of assay: SEC-MALS; AdvanceBio SEC 300-Å column connected to a DAWN8 detector, 0.3 ml/min, PBS pH 7.2.
For assay [4] the target is unchanged. In words: SEC.

For two substances, stoichiometry N results are on record in publication PMC9929470.

As a reminder, the stoichiometry N is a count of units in the complex or per binding partner. As for “recombinant N1 (neuraminidase subtype 1 head domain of A/Brisbane/02/2018 (H1N1) fused to the tetrabrachion tetramerization domain) (from UniProt Q54436 1238-1286) (enzyme)”, the stoichiometry N in assay [1] and in assay [2] was 4 in each case.
On to “recombinant N2 (neuraminidase subtype 2 head domain of A/Kansas/14/2017 (H3N2) fused to the tetrabrachion tetramerization domain) (from UniProt Q54436 1238-1286) (enzyme)”, for which the stoichiometry N in assay [3] and in assay [4] was 4 throughout.
